Series [1] concerns the target T1, CST (CTC1-STN1-TEN1) (Homo sapiens, UniProt Q2NKJ3;Q9H668;Q86WV5 1-1217;1-368;1-123). Description: EMSA; apparent Kd; EMSA: 25 mM Tris-HCl pH 8.0, 100 mM NaCl, 1 mM DTT; 0.1 nM DNA, 30 min RT (Kd(app): 0.01 nM DNA, 18 h, 4 °C). smFRET: 25 mM Tris-HCl pH 8.0, 150 mM NaCl, 1 mM D. The note with it: protein: recombinant; tags: FLAG-CTC1, FLAG-STN1, untagged TEN1; copies: 1;1;1; label: 32P.

Series [2] has as its target T2, CS (CTC1-STN1) (Homo sapiens, UniProt Q2NKJ3;Q9H668 1-1217;1-368). The description is as above. The note with it: protein: recombinant; tags: FLAG-CTC1, FLAG-STN1; copies: 1;1; label: 32P.
Series [3] has as its target T1, CST (CTC1-STN1-TEN1). As to the kind of experiment: smFRET; 2 nM protein; dwell time 14.32 ± 0.81 (s; assigned from figure text); EMSA: 25 mM Tris-HCl pH 8.0, 100 mM NaCl, 1 mM DTT; 0.1 nM DNA, 30 min RT (Kd(app): 0.01 nM DNA, 18 h, 4 °C). smFRET: 25 mM Tris-HCl pH 8.0, 150 mM NaCl, 1 mM D. The note with it: protein: recombinant; tags: FLAG-CTC1, FLAG-STN1, untagged TEN1; copies: 1;1;1; label: strand 1 3'-Cy3; strand 2 5'-Cy5 and 3'-biotin; 18 bp duplex, 3' overhang 18 nt. Background: Mobility shift assays separate free from complexed probe on a gel.

Series [4] addresses T2, CS (CTC1-STN1). Description: smFRET; 2 nM protein, imaged immediately; dwell time 8.22 ± 0.64 (s; assigned from figure text), 43% lower than CST; lost after flushing; EMSA: 25 mM Tris-HCl pH 8.0, 100 mM NaCl, 1 mM DTT; 0.1 nM DNA, 30 min RT (Kd(app): 0.01 nM DNA, 18 h, 4 °C). smFRET: 25 mM Tris-HCl pH 8.0, 150 mM NaCl, 1 mM D. The note with it: protein: recombinant; tags: FLAG-CTC1, FLAG-STN1; copies: 1;1; label: strand 1 3'-Cy3; strand 2 5'-Cy5 and 3'-biotin; 18 bp duplex, 3' overhang 18 nt.

Series [5] deals with T1, CST (CTC1-STN1-TEN1). As to the kind of experiment: EMSA; EMSA: 25 mM Tris-HCl pH 8.0, 100 mM NaCl, 1 mM DTT; 0.1 nM DNA, 30 min RT (Kd(app): 0.01 nM DNA, 18 h, 4 °C). smFRET: 25 mM Tris-HCl pH 8.0, 150 mM NaCl, 1 mM D. Conditions: protein: recombinant; tags: FLAG-CTC1, FLAG-STN1, untagged TEN1; copies: 1;1;1; label: 32P; hairpin, 15 bp stem, T5 loop, 3' overhang 18 nt.
The target in series [6] is T2, CS (CTC1-STN1). As to the kind of experiment: EMSA; about 5-fold less efficient than CST; EMSA: 25 mM Tris-HCl pH 8.0, 100 mM NaCl, 1 mM DTT; 0.1 nM DNA, 30 min RT (Kd(app): 0.01 nM DNA, 18 h, 4 °C). smFRET: 25 mM Tris-HCl pH 8.0, 150 mM NaCl, 1 mM D. Conditions: protein: recombinant; tags: FLAG-CTC1, FLAG-STN1; copies: 1;1; label: 32P; hairpin, 15 bp stem, T5 loop, 3' overhang 18 nt.

The source of these data is article PMC6053418, “CTC1-STN1 terminates telomerase while STN1-TEN1 enables C-strand synthesis during telomere replication in colon cancer cells”.

T2 sequence (Q2NKJ3 whole entry, chain 1 of 2): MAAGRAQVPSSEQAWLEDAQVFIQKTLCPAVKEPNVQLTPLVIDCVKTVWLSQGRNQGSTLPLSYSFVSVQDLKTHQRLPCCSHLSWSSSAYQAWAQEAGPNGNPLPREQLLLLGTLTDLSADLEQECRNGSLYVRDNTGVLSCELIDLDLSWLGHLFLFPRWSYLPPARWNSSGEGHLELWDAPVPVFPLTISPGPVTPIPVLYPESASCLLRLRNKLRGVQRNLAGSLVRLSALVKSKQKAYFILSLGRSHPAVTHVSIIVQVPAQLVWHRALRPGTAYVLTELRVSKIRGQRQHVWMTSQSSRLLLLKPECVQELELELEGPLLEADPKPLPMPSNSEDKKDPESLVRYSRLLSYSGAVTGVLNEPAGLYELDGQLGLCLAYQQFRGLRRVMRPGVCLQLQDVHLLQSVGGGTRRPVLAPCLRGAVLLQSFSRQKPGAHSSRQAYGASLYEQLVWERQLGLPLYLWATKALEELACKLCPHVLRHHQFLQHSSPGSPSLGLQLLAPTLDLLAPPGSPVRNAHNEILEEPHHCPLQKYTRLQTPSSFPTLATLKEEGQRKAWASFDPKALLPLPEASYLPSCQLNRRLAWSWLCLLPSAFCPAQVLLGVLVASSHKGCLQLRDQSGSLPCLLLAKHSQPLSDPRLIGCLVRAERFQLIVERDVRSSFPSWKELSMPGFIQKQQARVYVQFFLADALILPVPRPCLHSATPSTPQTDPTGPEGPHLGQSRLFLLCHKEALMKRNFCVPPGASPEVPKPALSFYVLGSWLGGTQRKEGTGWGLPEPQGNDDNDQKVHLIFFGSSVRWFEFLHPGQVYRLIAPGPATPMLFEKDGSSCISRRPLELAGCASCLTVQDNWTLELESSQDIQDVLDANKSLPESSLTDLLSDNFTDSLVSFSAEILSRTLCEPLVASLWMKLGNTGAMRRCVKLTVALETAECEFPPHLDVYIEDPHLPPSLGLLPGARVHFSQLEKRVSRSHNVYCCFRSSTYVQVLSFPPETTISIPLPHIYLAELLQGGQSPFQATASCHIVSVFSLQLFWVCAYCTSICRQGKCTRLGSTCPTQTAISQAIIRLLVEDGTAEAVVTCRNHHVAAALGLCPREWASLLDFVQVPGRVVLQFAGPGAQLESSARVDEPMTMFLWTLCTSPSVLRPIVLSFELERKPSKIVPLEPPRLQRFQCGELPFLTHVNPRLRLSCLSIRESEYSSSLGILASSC
T2 sequence (Q9H668 whole entry, chain 2 of 2): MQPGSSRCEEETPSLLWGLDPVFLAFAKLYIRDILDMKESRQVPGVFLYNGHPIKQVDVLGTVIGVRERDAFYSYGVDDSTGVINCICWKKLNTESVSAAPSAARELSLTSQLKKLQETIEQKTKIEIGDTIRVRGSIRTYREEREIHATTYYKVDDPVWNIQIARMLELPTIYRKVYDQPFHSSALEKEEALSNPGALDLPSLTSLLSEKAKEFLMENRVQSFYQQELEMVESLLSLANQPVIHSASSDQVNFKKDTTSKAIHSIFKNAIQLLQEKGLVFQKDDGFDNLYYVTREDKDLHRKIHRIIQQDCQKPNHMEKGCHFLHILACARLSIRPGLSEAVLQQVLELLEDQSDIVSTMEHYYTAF
T1 sequence (Q2NKJ3 whole entry, chain 1 of 3): as the sequence (Q2NKJ3 whole entry, chain 1 of 2) above
T1 sequence (Q9H668 whole entry, chain 2 of 3): as the sequence (Q9H668 whole entry, chain 2 of 2) above
T1 sequence (Q86WV5 whole entry, chain 3 of 3): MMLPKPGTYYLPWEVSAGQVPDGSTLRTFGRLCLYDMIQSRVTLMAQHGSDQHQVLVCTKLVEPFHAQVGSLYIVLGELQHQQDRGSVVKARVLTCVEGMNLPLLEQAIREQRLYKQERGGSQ

On to AGCGTATCCGTTCAGTTGAGCGTATCCGTTCAGTTGAGCGTATCCGTT (ssDNA) [NonTel-48], for which the figures for the Kd with CST (CTC1-STN1-TEN1) [1] and with CS (CTC1-STN1) [2] were 0.01 ± 0.005 nM and 0.08 ± 0.05 nM, respectively.

B1: smFRET junction, 18 nt overhang (dsDNA)
DNA 1: TGGCGACGGCAGCGAGGCAGCGTATCCGTTCAGTTG
DNA 2: GCCTCGCTGCCGTCGCCA
As for B1, the binding result with CST (CTC1-STN1-TEN1) [3] and in the series with CS (CTC1-STN1) [4] was “binds” each time.
Regarding GGTTAGGGTTAGGGTTAG (ssDNA) [Tel-18], the Kd was determined as 0.21 ± 0.07 nM in the series with CST (CTC1-STN1-TEN1) [1] and 1.04 ± 0.46 nM with CS (CTC1-STN1) [2].
Turning to GGTTAGGGTTAGGGTTAGGGTTAGGGTTAGGGTTAG (ssDNA) [Tel-36], the Kd came out at 0.02 ± 0.03 nM with CST (CTC1-STN1-TEN1) [1] and 0.33 ± 0.08 nM with CS (CTC1-STN1) [2].

B2: NonTel fold-back 18 nt 3' overhang (structured_DNA)
DNA: ACGACTGCATCTAGCTTTTTGCTAGATGCAGTCGTAGCGTATCCGTTCAGTTG
Regarding B2, the binding result in the series with CST (CTC1-STN1-TEN1) [5] and with CS (CTC1-STN1) [6] was “binds” in each case.
